B2: mouse Fz8-CRD (residues 32-151), biotinylated (domain or fragment, UniProt Q61091 32-151, looked up)
chain: ELACQEITVPLCKGIGYNYTYMPNQFNHDTQDEAGLEVHQFWPLVEIQCSPDLKFFLCSMYTPICLEDYKKPLPPCRSVCERAKAGCAPLMRQYGFAWPDRMRCDRLPEQGNPDTLCMDY
modifications: biotin on the BAP-tag (enzymatic, GST-BirA ligase)
B3: human Fz5-CRD (residues 30-150), biotinylated (domain or fragment, UniProt Q13467 30-150, looked up)
chain: APVCQEITVPMCRGIGYNLTHMPNQFNHDTQDEAGLEVHQFWPLVEIQCSPDLRFFLCSMYTPICLPDYHKPLPPCRSVCERAKAGCSPLMRQYGFAWPERMSCDRLPVLGRDAEVLCMDY
modifications: biotin on the BAP-tag (enzymatic, GST-BirA ligase)

How the values were obtained:
[1] = molecular target: B3; assay: SPR
[2] = molecular target: B2; assay: SPR
[3] = molecular target: T1, mini-XWnt8 (C-terminal fragment of XWnt8, residues 248-338) displayed on yeast (Xenopus, UniProt P28026 248-338); assay: flow cytometry on cells
T1 sequence (looked up): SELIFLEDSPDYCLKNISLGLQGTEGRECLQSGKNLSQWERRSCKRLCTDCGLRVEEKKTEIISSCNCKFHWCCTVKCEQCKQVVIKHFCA

B1: soluble mini-XWnt8 (residues 248-338) with C-terminal six-histidine tag (domain or fragment, Xenopus, UniProt P28026 248-338, looked up)
chain: SELIFLEDSPDYCLKNISLGLQGTEGRECLQSGKNLSQWERRSCKRLCTDCGLRVEEKKTEIISSCNCKFHWCCTVKCEQCKQVVIKHFCA
Kd [1]: ~3500 nM
Kd [2]: ~2400 nM

B2
percent of yeast stained [3]: ~50%

B3
percent of yeast stained [3]: ~30%

Source: PMC3577348 (Science (New York, N.Y.), 2012)
